Results: the domain aggregation screens of Martell et al. (2025)

test: soluble fraction after stress (log2 fold change); higher = more stays soluble; pooled small domains, quantitative proteomics; details: stress: 50 degC
Procedure, shortened: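 Custom libraries of small protein domains were pooled and measured in a high-throughput format, with quantitative proteomics as the read-out. Each library was stressed at 50°C. The value is the log2 fold change in the amount of each protein that stays soluble after stress, used as a measure of aggregation propensity; higher values mean more of the protein stays soluble.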

Q: For “HMVRVSELAIEPRLVVEETATGFVGAVVRYANGLIELEDRHGAVRTFPLGPGYLVDGRPVSLVKPT”, which “soluble fraction (log2)” value is on record?
A: The value was -0.371.

Q: Which “soluble fraction (log2)” value does the source give for “HMQERKYTVSFNTNGGSTINDQKITSGNVIISPGAPKRSGYTFVGWYYHGQPFDLNTKINQDYVLVAKWIK” here?
A: Its value is -1.16.

Q: For “HMQEEFVAPDVKDGAIVLHKAFGEGTVTKIDKAQKHIRVTFGVGEKTFIFPDAFKQGFLRMKG”, which “soluble fraction (log2)” value is on record?
A: Its value is 0.348.

Q: For “HMSENPLTSREIEIVQLLANGKTTKSIAEELHLSNGTIRNYVSIVLDKLNVSNRIEAIRKALDKGWL”, which “soluble fraction (log2)” value is on record?
A: Its value is -1.29.

Q: With “HMSVPVNAPMPGTILDIKVKAGAAVKAGDVVMILEAMKMENEISAPQDGTIASIDVRKGDTVNSGDVLYTM” as the sequence, how does the “soluble fraction (log2)” value read?
A: The value was 0.0456.

Q: Which “soluble fraction (log2)” value does the source give for “HMAEKAVELTENEKAIQTILSNGALEIGELKTKLELSGKQWDVALKGLAKHGITQVSKVEGVVTVGL” here?
A: The value was 0.136.

Q: Which “soluble fraction (log2)” value does the source give for “HMDYARYGLSEKEAELIELIAQGMNNKEISAEIYLSEGTVRNYISELLEKLELRDRTQLAVYYYTHR” here?
A: Its value is -2.71.

Q: For “HMSEATTVNYKYAVTISDLRIRKGPGTNYGSVGYTGKGVFTIVAEKGGWGKLKSGAGWISLNSKYGHKVS”, which “soluble fraction (log2)” value is on record?
A: The value was -1.45.

Q: Which “soluble fraction (log2)” value does the source give for “HMDSVTMYATTGVNVRSGPSTSYSIVGGLDRGDKVTRIGTSGNWTKVVWGNGSAYVFSKYLQTGY” here?
A: Its value is -1.81.

Q: With “HMEWNREQLEQIVLQHIRKHGFITRATYTELTGRLKNSALADLKSFAAEGIIKRVGRGNQMHFIVPL” as the sequence, how does the “soluble fraction (log2)” value read?
A: Its value is -2.42.

Q: Which “soluble fraction (log2)” value does the source give for “HMVDSVIGSVGRVTVDIDNVEALGQVKLGGMEWSARSTSGDPIPAGTEVRVDRVEGVKVFVTPV” here?
A: The value was -0.00113.

Q: Which “soluble fraction (log2)” value does the source give for “HMAVETYRVKKSDTMQTIADRFGLSVEELLEYNQAYKTRELRARDILIIPSRKERKKLQQQKAQAAAQVVQ” here?
A: Its value is -0.253.

Q: Which “soluble fraction (log2)” value does the source give for “HMHIELNDTQKRILNFLSDDPNLSAVRLAEQLGISSRNVEKNIKKLKEYGILIRHGSPKNGYWEIVV” here?
A: Its value is 0.0335.

Q: Which “soluble fraction (log2)” value does the source give for “HMTIDETKKQQVKDGLKDIPGVTVEFVGDKAVLKGAVTDANRVKIMQIVMAAKVLSDASGLTSK” here?
A: Its value is -0.11.

Q: Which “soluble fraction (log2)” value does the source give for “HMIQADFIPQVEQRLADRGLSMSGDVMAAFLDRAGYGLRHVSNEIEKLSLYLGDRKKVTVEDVVQMVAPVR” here?
A: The value was -0.283.

Q: For “HMVPAMGSLTLIKGGVNLRNAPGGLTIAQLDRGLVLSYTKFVQKDGYTWYLVNSPKGTGYVRSDVVQLGS”, which “soluble fraction (log2)” value is on record?
A: Its value is -0.251.

Q: With “HMYAVDTIHKGTITEMTDKGAVVSLGDNIDGFAPARQLVKEDGTTLKLGDTADFKVIEFSKATKRITLSH” as the sequence, how does the “soluble fraction (log2)” value read?
A: Its value is 0.286.

Q: For “HMKQVEVPRLVGLTLREAQAVLGQVGLRIGLISRAALLASPREQIVEQIPVAGERNIATPYVNLLVNVP”, which “soluble fraction (log2)” value is on record?
A: Its value is -0.649.

Q: Which “soluble fraction (log2)” value does the source give for “HMDISRMNLSQTERAVLSVLDSQPLHTEEIIASADLRAGAIHSALISLQLKGLIKQLPGNLYVK” here?
A: The value was -0.0722.

Q: Which “soluble fraction (log2)” value does the source give for “HMRSNADALIGRTARVSQTIVENGFGRVALDGDDWKAQAADGSRIEEGQNVIVKDRDSIILTVEKE” here?
A: The value was 0.074.

Q: Which “soluble fraction (log2)” value does the source give for “HMTMVKYRYLTDGELKEFEEEFKHFLIANGLHSEEWERLNNEDSNKAIEVVALFSNLILDKV” here?
A: Its value is -1.54.

Q: For “HMEKNKERIAFLKKRLEMYYEAEEKILQGQSYTIGSRTLTRTSLANVQSKIKELESEISALETRGN”, which “soluble fraction (log2)” value is on record?
A: The value was -0.57.

Q: With “HMYGLSFLIGFTVVDRTYGDIGKVTAIDDSTVNTLMAVGDRLIPAQEAFITKIDNTKKIIYTQLPEGLL” as the sequence, how does the “soluble fraction (log2)” value read?
A: The value was 0.177.

Q: With “HMHLLPAREQVAAYLRKAILRQEIREGTILNLADTARQMGVSVTPVREALQLLAAQGLVRLRPNKGAVVMG” as the sequence, how does the “soluble fraction (log2)” value read?
A: Its value is -0.891.

Q: Which “soluble fraction (log2)” value does the source give for “HMSTMTGTVDTPGASLNVRTGAWGPIVGQLAHGSKVTIIGSSGDWFKISYNGATRYVHKNYVNTT” here?
A: The value was -0.153.

Q: With “HMSTDDILSSITALRLASVQFQLGQFDPALDSLKLVKEQAWSGAKNILAGDIQLAKGDKEAAKASYQQAQQ” as the sequence, how does the “soluble fraction (log2)” value read?
A: Its value is -0.38.

Q: For “HMGKTEETLQMEKLVEALRRSGRMKYEDAYRIVYAAFPDAKDFEGMLSGAIRAGFIELQMGNDGAFLRAL”, which “soluble fraction (log2)” value is on record?
A: The value was -0.172.

Q: Which “soluble fraction (log2)” value does the source give for “HMAAGLTPKQKAFADNYIKNGGNAAEAARAAGYSLKNVGANAGKLLKNPKIAAYIAEKQAELDRRNGT” here?
A: Its value is 0.155.

Q: Which “soluble fraction (log2)” value does the source give for “HMNSLFPLSLKYLREQANITQAELAQKLDVTQQAVGRWERGQTSPDYETLKRLSVLFNVSVDYLLGV” here?
A: Its value is -0.304.

Q: With “HMQEERLTFDTLLGISGIGPRLALAVLSRFTPGSLAAAVDAGDTKAFSAVPGVGNRTASRIILELKGKL” as the sequence, how does the “soluble fraction (log2)” value read?
A: Its value is -0.771.

Q: For “HMNFTKHPENPNFVVYRFTDPERANSFRAELIANNISFEEDTEKKKQLIYTLFAIHTKYYNQSMQINIK”, which “soluble fraction (log2)” value is on record?
A: Its value is -0.463.

Q: With “HMAMTITKIEKTSQQKIYYFTDSGRVFKKMSDRSATIAVDDRVELEGGVLGSKFFVTANGSRVKVKEV” as the sequence, how does the “soluble fraction (log2)” value read?
A: Its value is -0.516.

Q: With “HMWGAYHDGQVVKFPKKVTVYVIDGQYKRPLANEFVLKFLNYKTSDIIIDKDGNLNNYKNGAVVEH” as the sequence, how does the “soluble fraction (log2)” value read?
A: The value was -2.69.

Q: Which “soluble fraction (log2)” value does the source give for “HMVVYQRVHDEILQALKDNVYPVGTLLPPEPELERIYSVSRTTVRRAIAKLSEEGYVQVRQGYGTMVLKN” here?
A: The value was -0.576.

Q: For “HMQVQHVWNRLKRPNGDVLYEINRDHPLVSASLDAAADRGAIETLLRQIEQSLPVNQLYVDMNADEHFE”, which “soluble fraction (log2)” value is on record?
A: Its value is -0.301.

Q: Which “soluble fraction (log2)” value does the source give for “HMSTLTGTQRAAVVLMQMSPPNAARVMAQFTDAEAEEIAAEIVRLRKVDPEVAEQIMKDFHEAALSS” here?
A: The value was -0.252.

Q: With “HMDIMNNILINRIKKILTEQNMSKADLSRLTGISNSSLSEYLNGKYEPKQDKIALIAKALHVSPAWLMGF” as the sequence, how does the “soluble fraction (log2)” value read?
A: Its value is -0.915.

Q: For “HMDSITEADLLRWAHALSGIARTGLGFTESRYERERYEEVLAVAADILAASSRSHDRAALVDEWLKMVGV”, which “soluble fraction (log2)” value is on record?
A: Its value is -1.8.
